Target: PDZ1/2 domain
Test: SPR, Biacore 3000; PDZ1/2 amine-coupled to the chip, peptide as analyte, 1:1 binding model

Sequence of PDZ1/2 domain (P78352 65-246): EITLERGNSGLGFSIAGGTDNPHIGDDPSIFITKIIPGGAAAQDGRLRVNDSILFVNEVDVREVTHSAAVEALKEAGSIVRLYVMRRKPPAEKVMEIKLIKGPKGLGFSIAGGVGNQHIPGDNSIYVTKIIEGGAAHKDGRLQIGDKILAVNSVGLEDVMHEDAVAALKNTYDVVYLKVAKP

B1: control chimeric peptide NA-1 (peptide)
peptide: YGRKKRRQRRRKLSSIESDV
modifications: not checked
Kd: 75.3 nM
